Assays:
huZIP12-ECD-GST [1] = target: T1, huZIP12-ECD-GST (human, UniProt Q504Y0 24-202); assay: SPR single cycle kinetics, 2.34-600 nM huZIP12-ECD-GST, extended dissociation; re-test, lower concentrations, extended dissociation
T1 construct: also called hZIP12-ECD-GST; human ZIP12-ECD-GST; not shown: glutathione S-transferase (GST) tag
Experimental: (§1) Single Cycle Kinetics (SCK) involves first capturing the mAb onto the protein A sensor surface and then sequentially injecting a series of concentrations of huZIP12-ECD-GST over the surface starting at the lowest concentration and ending with the highest concentration. The final concentration is followed by a dissociation phase where buffer only is passed across the surface followed by regeneration, where the remaining bound huZIP12-ECD-GST is removed from the surface by injection of a 10 mM Glycine pH 1.5 and 50 mM NaOH solution. The SCK is repeated for each monoclonal antibody providing duplicate data and the kinetics of each interaction is evaluated by the Biacore software.
(§2) A selection of the higher affinity antibody variants were re-tested at a lower concentration series with an extended dissociation time with the objective of obtaining a better assessment of the binding kinetics. Referring now to FIG. 7, there are shown the data for the monoclonal antibodies that were re-tested to optimise the binding kinetic data. Once again, three antibody variants, H3_W99H_L1, H3_W99HL2 and H3_W99H_VL-par, all appear to have a higher affinity than the parent antibody. The on-rate (ka), off-rate (kd) and overall affinity measurement (KD) are all improved compared to the 51B12 VH_VL_par parent antibody.

huZIP12-ECD-GST [2] = target: T1, huZIP12-ECD-GST; assay: HTRF competition: unlabelled antibody against Tb-labelled 51B12-parent on hZIP12-ECD-GST, detected with anti-GST-XL665
Experimental: Homogeneous Time Resolved Fluorescence (HTRF) assays were used to analyse the antibodies. A checkerboard assay was performed to validate the binding of the terbium labeled-antibody with hZIP12-ECD-GST. Serial dilutions (starting at 1000 ng/ml, semi-log dilutions) of Terbium-labeled 51B12-parent were incubated with serial dilutions of hZIP12-ECD-GST (starting at 5000 ng/ml, semi-log dilutions) followed by incubation with anti-GST-XL665. After excitation (320 nm), emission signals were obtained and HTRF ratio was calculated (665 nm/615 nm, Panel A). Signal/background ratios (S/B) were calculated from the HTRF ratios (0 ng/ml hZIP12-ECD-GST as background signal) and plotted against the Tb-51B12-parent concentration. The combinations 500 ng/ml hZIP12-ECD-GST+50 ng Tb-Ab, 150 ng/ml hZIP12-ECD-GST+50 ng Tb-Ab and 50 ng/ml hZIP12-ECD-GST+50 ng Tb-Ab were chosen as range for the competition assay. For the HTRF assay, 150 ng/ml hZIP12-ECD-GST+30 ng/ml Tb-51B12 was selected.

huZIP12-ECD-GST [3] = target: T1, huZIP12-ECD-GST; assay: SPR single cycle kinetics (Biacore): mAb captured on protein A, huZIP12-ECD-GST injected at 2.34-600 nM, extended dissociation
Experimental: as §1, §2

huZIP12-ECD-GST [4] = target: T1, huZIP12-ECD-GST; assay: SPR single cycle kinetics (Biacore): mAb captured on protein A, huZIP12-ECD-GST injected; mean±SD of the control runs
Experimental: as §1

huZIP12-ECD-GST [5] = target: T1, huZIP12-ECD-GST; assay: SPR single cycle kinetics (Biacore): mAb captured on protein A, huZIP12-ECD-GST injected at 3.12-800 nM
Experimental: as §1
(§3) Referring to FIG. 6, there are shown the kinetic parameters obtained for all antibody variants when screened with the 3.12 nM to 800 nM huZIP12-ECD-GST. […] Affinity.

huZIP12-ECD-GST [6] = target: T1, huZIP12-ECD-GST; assay: SPR single cycle kinetics, mAb captured on protein A, 3.12-800 nM huZIP12-ECD-GST
Experimental: as §1, §3

T1 sequence (Q504Y0 24-202): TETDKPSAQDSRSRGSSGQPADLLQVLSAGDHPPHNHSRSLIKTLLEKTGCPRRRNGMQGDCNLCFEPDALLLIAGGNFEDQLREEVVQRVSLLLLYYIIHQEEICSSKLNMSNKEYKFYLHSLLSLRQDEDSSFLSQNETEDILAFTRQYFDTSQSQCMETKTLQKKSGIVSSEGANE

| Binder | Kd (huZIP12-ECD-GST [1]) | IC50 (read off the curve) (huZIP12-ECD-GST [2]) | Kd (huZIP12-ECD-GST [3]) | koff (huZIP12-ECD-GST [3]) | kon (huZIP12-ECD-GST [3]) | Kd (huZIP12-ECD-GST [4]) | koff (huZIP12-ECD-GST [4]) | Kd (huZIP12-ECD-GST [5]) | koff (huZIP12-ECD-GST [5]) | kon (huZIP12-ECD-GST [5]) | Kd (huZIP12-ECD-GST [6]) |
| --- | --- | --- | --- | --- | --- | --- | --- | --- | --- | --- | --- |
| 51B12 parent (antibody, V domains shown, Fc null human IgG1 / human kappa) VH: QVQLVESGGGVVQPGRSLRLSCAASGFTFSDYGMHWVRQAPGKGLEWVAYISSGGTTIYYADTVKGRFTISRDNSKNTLYLQMNSLRAEDTAVYYCARWTNLYAMDYWGQGTTVTVSS VL: DIVLTQSPDSLAVSLGERATINCRASKSVSTSGYSYMHWYQQKPGQPPKFLIYLASNLESGVPDRFSGSGSGTDFTLTISSLQAEDVAVYYCQHSREVPYTFGGGTKVEIKR | 1.1 nM | ~0.2 µg/mL | 1.09 nM | 3e-05 s⁻¹ | 27500 M⁻¹ s⁻¹ | 0.969 nM | 2.66e-05 s⁻¹ | – | – | – | – |
| H3_W99H_VL-par (antibody, V domains shown, Fc null human IgG1 / human kappa) VH: QVQLVESGGGVVQPGRSLRLSCAASGFTFSDYGMHWVRQAPGKGLEWVAYISSGGTTIYYADTVKGRFTISRDNSKNTLYLQMNSLRAEDTAVYYCARHTNLYAMDYWGQGTTVTVSS VL: DIVLTQSPDSLAVSLGERATINCRASKSVSTSGYSYMHWYQQKPGQPPKFLIYLASNLESGVPDRFSGSGSGTDFTLTISSLQAEDVAVYYCQHSREVPYTFGGGTKVEIKR | – | – | 0.322 nM | 3.29e-05 s⁻¹ | 102000 M⁻¹ s⁻¹ | – | – | 0.481 nM | 4.67e-05 s⁻¹ | 97100 M⁻¹ s⁻¹ | ~0.5 nM |
| H2_T57H_L1 (antibody, V domains shown, Fc null human IgG1 / human kappa) VH: QVQLVESGGGVVQPGRSLRLSCAASGFTFSDYGMHWVRQAPGKGLEWVAYISSGGTHIYYADTVKGRFTISRDNSKNTLYLQMNSLRAEDTAVYYCARWTNLYAMDYWGQGTTVTVSS VL: DIVLTQSPDSLAVSLGERATINCRASKSVSTQGYSYMHWYQQKPGQPPKFLIYLASNLESGVPDRFSGSGSGTDFTLTISSLQAEDVAVYYCQHSREVPYTFGGGTKVEIKR | – | – | 0.971 nM | 4.18e-05 s⁻¹ | 43100 M⁻¹ s⁻¹ | – | – | 0.743 nM | 3.3e-05 s⁻¹ | 44400 M⁻¹ s⁻¹ | – |
| H2_T63Y_L1 (antibody, V domains shown, Fc null human IgG1 / human kappa) VH: QVQLVESGGGVVQPGRSLRLSCAASGFTFSDYGMHWVRQAPGKGLEWVAYISSGGTTIYYADYVKGRFTISRDNSKNTLYLQMNSLRAEDTAVYYCARWTNLYAMDYWGQGTTVTVSS VL: DIVLTQSPDSLAVSLGERATINCRASKSVSTQGYSYMHWYQQKPGQPPKFLIYLASNLESGVPDRFSGSGSGTDFTLTISSLQAEDVAVYYCQHSREVPYTFGGGTKVEIKR | – | – | 1.34 nM | 3.68e-05 s⁻¹ | 27500 M⁻¹ s⁻¹ | – | – | 1.07 nM | 3.16e-05 s⁻¹ | 29600 M⁻¹ s⁻¹ | – |
| H2_T56H_VL-par (antibody, V domains shown, Fc null human IgG1 / human kappa) VH: QVQLVESGGGVVQPGRSLRLSCAASGFTFSDYGMHWVRQAPGKGLEWVAYISSGGHTIYYADTVKGRFTISRDNSKNTLYLQMNSLRAEDTAVYYCARWTNLYAMDYWGQGTTVTVSS VL: DIVLTQSPDSLAVSLGERATINCRASKSVSTSGYSYMHWYQQKPGQPPKFLIYLASNLESGVPDRFSGSGSGTDFTLTISSLQAEDVAVYYCQHSREVPYTFGGGTKVEIKR | – | – | 0.591 nM | 1.51e-05 s⁻¹ | 25600 M⁻¹ s⁻¹ | – | – | 1.29 nM | 3.38e-05 s⁻¹ | 26200 M⁻¹ s⁻¹ | – |
| H3_W99H_L2 (antibody, V domains shown, Fc null human IgG1 / human kappa) VH: QVQLVESGGGVVQPGRSLRLSCAASGFTFSDYGMHWVRQAPGKGLEWVAYISSGGTTIYYADTVKGRFTISRDNSKNTLYLQMNSLRAEDTAVYYCARHTNLYAMDYWGQGTTVTVSS VL: DIVLTQSPDSLAVSLGERATINCRASKSVSTSGYSYMHWYQQKPGQPPKFLIYLASNKESGVPDRFSGSGSGTDFTLTISSLQAEDVAVYYCQHSREVPYTFGGGTKVEIKR | – | – | 0.339 nM | 3.16e-05 s⁻¹ | 93100 M⁻¹ s⁻¹ | – | – | 0.472 nM | 3.98e-05 s⁻¹ | 84300 M⁻¹ s⁻¹ | ~0.5 nM |
| H2_Y60K_L1 (antibody, V domains shown, Fc null human IgG1 / human kappa) VH: QVQLVESGGGVVQPGRSLRLSCAASGFTFSDYGMHWVRQAPGKGLEWVAYISSGGTTIYKADTVKGRFTISRDNSKNTLYLQMNSLRAEDTAVYYCARWTNLYAMDYWGQGTTVTVSS VL: DIVLTQSPDSLAVSLGERATINCRASKSVSTQGYSYMHWYQQKPGQPPKFLIYLASNLESGVPDRFSGSGSGTDFTLTISSLQAEDVAVYYCQHSREVPYTFGGGTKVEIKR | – | – | 0.604 nM | 2.25e-05 s⁻¹ | 37200 M⁻¹ s⁻¹ | – | – | 0.957 nM | 3.7e-05 s⁻¹ | 38600 M⁻¹ s⁻¹ | – |
| H2_T57H_VL-par (antibody, V domains shown, Fc null human IgG1 / human kappa) VH: QVQLVESGGGVVQPGRSLRLSCAASGFTFSDYGMHWVRQAPGKGLEWVAYISSGGTHIYYADTVKGRFTISRDNSKNTLYLQMNSLRAEDTAVYYCARWTNLYAMDYWGQGTTVTVSS VL: DIVLTQSPDSLAVSLGERATINCRASKSVSTSGYSYMHWYQQKPGQPPKFLIYLASNLESGVPDRFSGSGSGTDFTLTISSLQAEDVAVYYCQHSREVPYTFGGGTKVEIKR | – | – | 0.792 nM | 3.3e-05 s⁻¹ | 41600 M⁻¹ s⁻¹ | – | – | 0.791 nM | 3.47e-05 s⁻¹ | 43900 M⁻¹ s⁻¹ | – |
| H2_Y60K_VL-par (antibody, V domains shown, Fc null human IgG1 / human kappa) VH: QVQLVESGGGVVQPGRSLRLSCAASGFTFSDYGMHWVRQAPGKGLEWVAYISSGGTTIYKADTVKGRFTISRDNSKNTLYLQMNSLRAEDTAVYYCARWTNLYAMDYWGQGTTVTVSS VL: DIVLTQSPDSLAVSLGERATINCRASKSVSTSGYSYMHWYQQKPGQPPKFLIYLASNLESGVPDRFSGSGSGTDFTLTISSLQAEDVAVYYCQHSREVPYTFGGGTKVEIKR | – | – | 0.829 nM | 3.26e-05 s⁻¹ | 39400 M⁻¹ s⁻¹ | – | – | 1.09 nM | 4.01e-05 s⁻¹ | 36700 M⁻¹ s⁻¹ | – |
| H2_G66Q_VL-par (antibody, V domains shown, Fc null human IgG1 / human kappa) VH: QVQLVESGGGVVQPGRSLRLSCAASGFTFSDYGMHWVRQAPGKGLEWVAYISSGGTTIYYADTVKQRFTISRDNSKNTLYLQMNSLRAEDTAVYYCARWTNLYAMDYWGQGTTVTVSS VL: DIVLTQSPDSLAVSLGERATINCRASKSVSTSGYSYMHWYQQKPGQPPKFLIYLASNLESGVPDRFSGSGSGTDFTLTISSLQAEDVAVYYCQHSREVPYTFGGGTKVEIKR | – | – | 0.83 nM | 2.78e-05 s⁻¹ | 33600 M⁻¹ s⁻¹ | – | – | 1.08 nM | 3.72e-05 s⁻¹ | 34400 M⁻¹ s⁻¹ | – |
| H2_G66Q_L2 (antibody, V domains shown, Fc null human IgG1 / human kappa) VH: QVQLVESGGGVVQPGRSLRLSCAASGFTFSDYGMHWVRQAPGKGLEWVAYISSGGTTIYYADTVKQRFTISRDNSKNTLYLQMNSLRAEDTAVYYCARWTNLYAMDYWGQGTTVTVSS VL: DIVLTQSPDSLAVSLGERATINCRASKSVSTSGYSYMHWYQQKPGQPPKFLIYLASNKESGVPDRFSGSGSGTDFTLTISSLQAEDVAVYYCQHSREVPYTFGGGTKVEIKR | – | – | 1.2 nM | 3.59e-05 s⁻¹ | 30000 M⁻¹ s⁻¹ | – | – | 1.17 nM | 3.42e-05 s⁻¹ | 29100 M⁻¹ s⁻¹ | – |
| H2_T63Y_VL-par (antibody, V domains shown, Fc null human IgG1 / human kappa) VH: QVQLVESGGGVVQPGRSLRLSCAASGFTFSDYGMHWVRQAPGKGLEWVAYISSGGTTIYYADYVKGRFTISRDNSKNTLYLQMNSLRAEDTAVYYCARWTNLYAMDYWGQGTTVTVSS VL: DIVLTQSPDSLAVSLGERATINCRASKSVSTSGYSYMHWYQQKPGQPPKFLIYLASNLESGVPDRFSGSGSGTDFTLTISSLQAEDVAVYYCQHSREVPYTFGGGTKVEIKR | – | – | 0.868 nM | 2.51e-05 s⁻¹ | 28900 M⁻¹ s⁻¹ | – | – | 1.03 nM | 3.04e-05 s⁻¹ | 29600 M⁻¹ s⁻¹ | – |
